From article PMC2990977

Biological target: 80S ribosome from Thermomyces lanuginosus (Thermomyces lanuginosus)
Experiment: co-sedimentation

“eukaryotic elongation factor 2 (eEF2) from Thermomyces lanuginosus (natural protein)” showed an occupancy relative to Sordarin-trapped eEF2 of 60 to 70% and a percent eEF2 bound (GDP only) of 16%.
